Fewer inactive variants are shown than the library holds.
B1: TPR 5TU (parent)
chain: GGAUCUUCUCGAUCUAACAAAAAAGACAAAUCUGCCACAAAGCUUGAGAGCAUCUUCGGAUGCAGAGGCGGCAGCCUUCGGUGGCGCGAUAGCGCCAACGUUCUCAACUAUGACACGCAAAACGCGUGCUCCGUUGAAUGGAGUUUAUCAUG

Variants of: B1
Assay: polymerase ribozyme fitness, log enrichment relative to wild type (log ratio); higher = more active; in vitro selection for triplet polymerase activity
In short: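 One round of in vitro selection, in triplicate, was applied to PCR-built, transcribed mutant libraries of each subunit of a heterodimeric triplet polymerase ribozyme. The steps were annealing with a biotinylated primer, partner subunit and triplets, incubation frozen at −7 °C, gel excision of extended constructs, streptavidin-bead capture and RT-PCR. Fitness is the logarithm, base 2, of genotype enrichment over wild-type enrichment from inverse-variance-weighted replicate averages of Illumina-sequenced inputs and outputs, keeping genotypes with ≥10 input reads and ≥1 read per output.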

Variant | polymerase ribozyme fitness (log ratio)
GGAUCUUCUCGAUCUAACAAAAAAGACAAAUCUGCCACAAAGCUUGAGCGUAUCUUCGGAUGCAGAGGCGGCAGCCUUCGGUGGCGCGAUAGCGUAAACGUUCUCAACUAUAACACGCAAAACGCAUGCUCCGUUGAAUGGAGUUUAUCAUG [A49C C51U C95U C96A G112A G126A] | ≤ -4.2
GGAUCUUCUCGAUCUAACAAAAAAGACAAAUCUGCCACAAAGCUUGAGCGCAUCUUCGGAUGCAGAGGCGGCAGCCUUCGGUGGCGCGAUAGCGCCAACGUUCUCAACUAUGACUCGCAAAACGCGUGCUCCGUUGAAUGGAGUUUAUCAUG [A49C A115U] | ≤ -4.2
GGAUCUUCUCGAUCUAACAAAAAAGACAAAUCUGCCACAAAGCUUGAGCGCAUCUUCGGAUGCAGAGGCGGCAGCCUUCGGUGGCGCGAUAGCGCCAAUGUGCUCAACUAUGACACGCAAAACGCGUGCUCCGUUGAAUGGAGUUUAUCAUG [A49C C99U U102G] | -0.308
GGAUCUUCUCGAUCUAACAAAAAAGACAAAUCUGCCACAAAGCUUGAGCGCAUCUUCGGAUGCUGAUACGACAGCCUUCGGUGGCGCGAUAGCGCCAACGUUCUCAACUAUGACACGCAAAACGCGUGCUCCGUUGAAUGGAGUUUAUCAUG [A49C A64U G67U G68A G71A] | ≤ -4.2
GGAUCUUCUCGAUCUAACAAAAAAGACAAAUCUGCCACAAAGCUUGAGCGCAGCUCCGGAUGCAGAGGCGGCAGCCUUCGGUGGCGCGAUAGCGCCAACGUUCUCAACUAUGACACGCCAAACGCGUGCUCCGUUGAAUGGAGUUUAUCAUG [A49C U53G U56C A119C] | ≤ -4.2
GGAUCUUCUCGAUCUAACAAAAAAGACAAAUCUGCCACAAAGCUUGAUAGCAUCUUCGGAUGCAGAGGCGGCAGCCUUCGGUGGCGCGAUAGCGCCAACGUUCUCAACUAUGACACGCAAAACGCGUGCUCCGGUGAAUGGAGUUUAUCAUG [G48U U134G] | -2.34
GGAUCUUCUCGAUCUAACAAAAAAGACAAAUCUGCCACAAAGCUUGAGCGCAUCGUCGGUUGCAAAGGCGGCACCCAUCGGUGGCGCGAUAGCGCCAACGUUCUCAACUAUGACACGCAAAACGCGUGCUCCGUUGAAUGGAGUUUAUCAUG [A49C U55G A60U G65A G74C U77A] | ≤ -4.2
GGAUCUUCUCGAUCUAACAAAAAAGACAAAUCUGCCACAAAGCUUGAGCGCAUCUUCGGAUGCAGAGGCGGCAGCCUUCGGUGGCGCGAUAGCGCCAACGUUCUCAACUAUGACACGCAAAACGCGUGCUCCGUUGCAUGGAGUUUAUCAUG [A49C A137C] | ≤ -4.2
GGAUCUUCUCGAUCUAACAAAAAAGACAAAUCUGCCACAAAGCUUGAGCGCAUCUUCGGAUGCAGAGGCGGCAGCCUUCGCUGGUGCGAUAGCGCCAUCGUUCCCAACUAUGACACGCAAAACGCGUGCUCCGUUGAAUGGAGUUUAUCAUG [A49C G81C C85U A98U U104C] | ≤ -4.2
GGAUCUUCUCGAUCUAACAAAAAAGACAAAUCUGCCACAAAGCUUGAGCGCAUCUUCGGAUGCAGAGGCGGCAGCCUUCGGUGGCGCGAUAGCGCGAACGUUCUCAACUAUGACACGCAAAACGCGUGCUCCGUUGAAUGGAGUUUAUCAUG [A49C C96G] | -3.45
GGAUCUUCUCGAUCUAACAAAAAAGACAAAUCUGCCACAAAGCUUGAGCGCAUCUUCGGAUGCAGAGGCGGCAGCCUUCGGUGGCGCGAUAGCGCCAACGUUCUCAACUAUGACACGCAAAACGCGUGCUCCGUUGAAUGUAGUUUAUCAUG [A49C G141U] | -3.13
GGAUCUUCUCGAUCUAACAAAAAAGACAAAUCUGCCACAAAGCUUGAGCGCAUCUUCGCAUGCAGAGGCGGCAGCCUUCGGUGGCGCGAUUGCGCCAACGUUCUCAACUAUGACACGCAAAACGCGUGCUCCGUUGAAUGGAGUUUAUCAUG [A49C G59C A91U] | ≤ -4.2
GGAUCUUCUCGAUCUAACAAAAAAGACAAAUCUGCCACAAAGCUUGAGCGCAUCAUCGGAUGCAGAGGCGGCAGCCUUCGGUGGCACGAUAGCGCCAAGGUUCUCAACUAUGACACGCAAAACGCGUGCUCCGUUGAAUGGUGUUUAUCAUG [A49C U55A G86A C99G A142U] | ≤ -4.2
GGAUCUUCUCGAUCUAACAAAAAAGACAAAUCUGCCACAAAGCUUGAGCUCAUCUUCGGAUGCAGAGGCGGCAGCCUGCGGUGGUGCGAUAGCGCCGACGUGCUCAUCUAUGACACGCAAAACGCGUGCUCCGUUGAAUGGCGUUUAUCAUG [A49C G50U U78G C85U A97G U102G A107U A142C] | ≤ -4.2
GGAUCUUCUCGAUCUAACAAAAAAGACAAAUCUGCCACAAAGCUUGAGCGCAUCUUCGGAUGCAGAGGCGACAGCCUUCGGUGGCGCGAUAGCGCCAACGUUCUCAACUAUGACACGCAAAACGCGUGCUCCGUUGAAUGGAGUUUAUCAUG [A49C G71A] | ≤ -4.2
GGAUCUUCUCGAUCUAACAAAAAAGACAAAUCUGCCACAAAGCUUGAGCGCAUCUUUGGAUGCAGAGGCGGCAUCCUUCGGUGGCGCGAAAGGGUCAACGUUGUCAACUAUGACACGCAAAACGCGUGCUCCGUUGACUGGAGUUUAUCAUG [A49C C57U G74U U90A C93G C95U C103G A138C] | ≤ -4.2
GGAUCUUCUCGAUCUAACAAAAAAGACAAAUCUGCCACAAAGCUUGAGCGCAUCUUCGGAUGCAGAGGCGGCAGCCUUCGGUGUCGCGAUAGCGCCAACGUUCUCAGCUAGGACACGCAGAACGCGUGCUCCGUUGAAUGGAGUUUAUCAUG [A49C G84U A107G U111G A120G] | ≤ -4.2
GGAUCUUCUCGAUCUAACAAAAAAGACAAAUCUGCCACAAAGCUUGAGCGCAUCUUCGGAUGCUGAGGCGGCAGCCUUCGGUGGCGAGAUAGCGCCAACGUUCGCAACUAUGACACGCAAAACGCGUGCUCCGUUGAAUGGAAUUUAUCAUG [A49C A64U C87A U104G G143A] | ≤ -4.2
GGAUCUUCUCGAUCUAACAAAAAAGACAAAUCUGCCACAAAGCUUGAGCGCAUCUUCGGAUGCAGAGGCGGCAGCCUUCGGUGGCGCGAUAGUGCCAACGUUCUCAACUAUGACACGCAAAACGCGUGCUCCGUUGAAUGGAGUUUAUCAUG [A49C C93U] | ≤ -4.2
